This note sets out measurements from doi:10.1101/2025.11.24.690281.

The assay has as its target GST-tagged intracellular c-terminus of LRP6, in vitro phosphorylated with GSK3 and CK1. The assay is described as follows: pull-down.

The substance “Strep-tag-Mena-EVH1-CC (domain or fragment)” displayed a fold increase of the interaction against unphosphorylated GST-LRP6 of 20 fold.
